Measurements taken from doi:10.1101/789552 (bioRxiv, 2019).
Read-outs that look alike come from different tables or passages of the source.

B1: CAP2 (endogenous, rat hippocampus and primary hippocampal neurons) (natural protein, UniProt P52481 1-477, looked up)
chain: MADMLGLMQRLEFAVSRLERLSSGLHEPPGGCGEVNSLSRGIVAPSVEAFDKLINSMVAEFLKNSRVLAGDVETHAEMVHGAFQAQRAFLLMVSQHQQPQENEVAVLLKPISEKIQEIQTFRERNRGSDMFNHLSAVSESIAALGWIAVSPKPGPYVKEMNDAATFYTNRVLRDYKHSDLRHVDWVRSYLKIWSELQAYIKEHHTTGLTWSKTGPVASTASAFSILSSGPGLPPPPPPPPPPGPPPPFENEGGKEEPSPSRSALFAQLNQGEAITKGLRHVTDDKKIYKNPSLRAQGQIRSPTKTRTPSPTSSKSNSPQKHAPVLELEGKKWRVEYQEDRNDLVISETELKQVAYIFKCDKSTLQIKGKVNSITVDNCKKFGLVFDHVVGIVEVINSKDIQIQVMGRVPTISINKTEGCHLYLSKDALDCEIVSAKSSEMNVLVPQGDDYREFPIPEQFKTIWDGSKLITEPAEIMA
B2: CAP2 (endogenous, mouse hippocampus) (natural protein, mouse (endogenous in hippocampus), UniProt Q9CYT6 1-476, looked up)
chain: MTDMAGLMERLERAVIRLEQLSAGLDGPPRGCGEVNGVNGGVAPSVEAFDKLINSMVAEFLKNSRVLAGDVETHAEMVHGAFQAQRAFLLMVSQYQQPQENEVAVLLKPISEKIQEIQTFRERNRGSNMFNHLSAVSESIAALGWIAVSPKPGPYVKEMNDAATFYTNRVLKDYKHSDLRHVDWVRSYLNIWSELQAYIREHHTTGLTWSKTGPVASTASAFSILSSGPGLPPPPPPPPPPGPPPPFENEDKKEEPSPSRSALFAQLNQGEAITKGLRHVTDDKKTYKNPSLRAQGQIRSPTKTHTPSPTSPKSNSPQKHTPVLELEGKKWRVEYQEDRNDLVISETELKQVAYIFKCDKSTLQIKGKVNSITVDNCKKFGLVFDHVVGIVEVINSKDIQIQVMGRVPTISINKTEGCHLYLSEDALDCEIVSAKSSEMNVLVPQDDDYREFPIPEQFKTIWDGSKLVTEPAEIMA
B3: Myc-CAP2 (natural protein, UniProt Q9CYT6 1-476, looked up)
chain: B2 chain
B4: Streptag-CAP2 (natural protein, UniProt Q9CYT6 1-476, looked up)
chain: B2 chain
B5: CAP2 monomer (endogenous, human hippocampus) (natural protein, human (endogenous in hippocampus), UniProt P40123 1-477, looked up)
chain: MANMQGLVERLERAVSRLESLSAESHRPPGNCGEVNGVIAGVAPSVEAFDKLMDSMVAEFLKNSRILAGDVETHAEMVHSAFQAQRAFLLMASQYQQPHENDVAALLKPISEKIQEIQTFRERNRGSNMFNHLSAVSESIPALGWIAVSPKPGPYVKEMNDAATFYTNRVLKDYKHSDLRHVDWVKSYLNIWSELQAYIKEHHTTGLTWSKTGPVASTVSAFSVLSSGPGLPPPPPPLPPPGPPPLFENEGKKEESSPSRSALFAQLNQGEAITKGLRHVTDDQKTYKNPSLRAQGGQTQSPTKSHTPSPTSPKSYPSQKHAPVLELEGKKWRVEYQEDRNDLVISETELKQVAYIFKCEKSTIQIKGKVNSIIIDNCKKLGLVFDNVVGIVEVINSQDIQIQVMGRVPTISINKTEGCHIYLSEDALDCEIVSAKSSEMNILIPQDGDYREFPIPEQFKTAWDGSKLITEPAEIMA

Assays:
Test in all cases: non-reducing SDS-PAGE with Western blot
[1] = target: the molecule itself
[2] = target: the molecule itself; remark: listed apart in the source
[3] = target: the molecule itself; remark: listed apart in the source

| Protein | stoichiometry N [1] | other results |
| --- | --- | --- |
| B1 | 2 |  |
| B2 | 2 |  |
| B3 |  | stoichiometry N [2]: 2 |
| B4 |  | stoichiometry N [3]: 2 |
| B5 | 2 |  |
